Data set [1] deals with GST:RBD (Arabidopsis thaliana). Kind of data set: EMSA. The note with it: EMSA: 5 ng RNA in 10 ul Union Buffer (100 mM Tris-HCl pH 8.0, 1 M NaCl, 8 U RiboLock (so in the source)), 30 min at 4 C, 1.2% agarose; northwestern: 10 mM Tris-HCl pH …. In general terms: Mobility shift assays separate free from complexed probe on a gel.
For data set [2], the system named is GST:atALKBH9B wt (Arabidopsis thaliana). Briefly: EMSA. The following applies: EMSA: 5 ng RNA in 10 ul Union Buffer (100 mM Tris-HCl pH 8.0, 1 M NaCl, 8 U RiboLock (so in the source)), 30 min at 4 C, 1.2% agarose; northwestern: 10 mM Tris-HCl pH ….

Results on one substance are retold here after publication PMC8287571.

The term Kd denotes a measure of binding affinity in units of concentration. Read a high Kd as a looser complex.

For the substance 3'UTR transcript of AMV RNA3/4, the Kd was found to be 640 nM in data set [1] and 300 nM in data set [2].
